Measured values taken from paper PMC6366758, “Structure basis of neutralization by a novel site II/IV antibody against respiratory syncytial virus fusion protein” (PLoS ONE, 2019).

B1: R4.C6 monoclonal antibody (antibody, V domains shown)
VH: EVQLQQSGPELVKPGASVKISCKASGYAFSNSWMSWVKQRPGKGLEWIGRLFPADGDITYNGHFKDKAALTADKSSNTAYIQLSSLTSEDSAVYFCARMDNSEVFWGQGTLVTVSA
VL: DILLTQSQKFMSTSVGDRVSITCKASQNVRTGVSWYQRKPGQSPKALIYLASNRHTGVPDRFTGRGSGTDFTLTISEVQSEDLADYFCLQHWTVPYTFGGGTKLEIK
notes: mouse IgG2a; mouse kappa; Only the Fv was modelled in 6CXC; also called mAb R4.C6; source: mouse hybridoma (BALB/c immunized with RSV F NP), serum free medium, purified (protein-G)
B2: Motavizumab (antibody, V domains shown)
VH: QVTLRESGPALVKPTQTLTLTCTFSGFSLSTAGMSVGWIRQPPGKALEWLADIWWDDKKHYNPSLKDRLTISKDTSKNQVVLKVTNMDPADTATYYCARDMIFNFYFDVWGQGTTVTVSS
VL: DIQMTQSPSTLSASVGDRVTITCSASSRVGYMHWYQQKPGKAPKLLIYDTSKLASGVPSRFSGSGSGTEFTLTISSLQPDDFATYYCFQGSGYPFTFGGGTKVEIK
notes: IgG1; kappa; also called motatvizumab; source: obtained from National Institute of Standards and Technology

Tests used:
Settings in all cases: both partners purified
Post-fusion F = biological target: T1, Post-fusion F (Human respiratory syncytial virus A, …, stabilised); experiment: SPR; Biacore T200; mAb (2 ug/mL) captured on protein A or protein G amine-coupled to a CM5 chip; RSV F injected at 3.3, 10, 30, 90 nM, 180 s association, 600 s dissociation; 1:1 fit; apparent KD = kd/ka
T1 construct: Fusion (F) glycoprotein of human RSV/A2 from residue 26, TM/CT domains replaced with a C-terminal 6-histidine tag; Expressed with a gp64 signal peptide; also called post-fusion RSV F; post-fusion trimer; source: Sf9, baculovirus-infected, culture supernatant, purified (IMAC, ion exchange)

Pre-fusion F = biological target: T2, Pre-fusion F (Human respiratory syncytial virus A, …, UniProt P03420, stabilised); experiment: as above
T2 construct: Fusion (F) glycoprotein F0 of human RSV/A2, residues 26-574, intact TM/CT; mutant furin site I, p27 region deleted, fusion peptide deletion, three stabilizing substitutions; Expressed with a gp64 signal peptide; also called pre-fusion RSV F; pre-fusion trimer; source: Sf9, baculovirus-infected, extracted from cell pellets, purified

[1] = biological target: T3, Antigenic site II peptide 259-273 (Human respiratory syncytial virus A (A2 …)); experiment: SPR; Biacore T200; mAb (2 ug/mL, 90 s) captured on protein A or protein G on a CM5 chip; site II peptides injected at 100, 200, 400, 800 nM, 180 s, then 600 s buffer; 1:1 fit; apparent KD = kd/ka
T3 construct: RSV F antigenic site II, residues 259-273; source: synthetic peptide (Peptide 2.0)
T3 chain: SLINDMPITNDQKKL

[2] = biological target: T4, Antigenic site II peptide 264-278 (Human respiratory syncytial virus A (A2 …)); experiment: as above
T4 construct: RSV F antigenic site II, residues 264-278; source: synthetic peptide (Peptide 2.0)
T4 chain: MPITNDQKKLMSNNV

[3] = biological target: T5, Antigenic site II peptide 254-273 (human respiratory syncytial virus); experiment: as above
T5 construct: RSV F antigenic site II, residues 254-273; source: synthetic peptide (Peptide 2.0)
T5 chain: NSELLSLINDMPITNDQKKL

[4] = biological target: T6, Antigenic site II peptide 254-268 (Human respiratory syncytial virus A (A2 …)); experiment: as above
T6 construct: RSV F antigenic site II, residues 254-268; source: synthetic peptide (Peptide 2.0)
T6 chain: NSELLSLINDMPITN

[5] = biological target: T7, Antigenic site II peptide 260-278 (Human respiratory syncytial virus A (A2 …)); experiment: as above
T7 construct: RSV F antigenic site II, residues 260-278; source: synthetic peptide (Peptide 2.0)
T7 chain: LINDMPITNDQKKLMSNNV

[6] = biological target: T8, Antigenic site II synthetic peptide of RSV F (254-278) (Human respiratory syncytial virus A, …); experiment: as above
T8 construct: RSV F antigenic site II, residues 254-278; also called Site II peptide; full-length peptide; source: synthetic peptide (Peptide 2.0)
T8 chain: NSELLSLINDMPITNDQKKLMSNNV

| Binder | Kd (Post-fusion F) | binding result (Pre-fusion F) | binding result [1] | Kd [2] | binding result [3] | binding result [4] | Kd [5] | Kd [6] |
| --- | --- | --- | --- | --- | --- | --- | --- | --- |
| B1 | 0.34 nM | binds | no binding (tested: 800 nM) | 110 nM | no binding (tested: 800 nM) | no binding (tested: 800 nM) | 84.2 nM | 12.5 nM |
| B2 |  | binds |  |  |  |  |  | 26.7 nM |
